Laboratory results from patent US8143228B2, “Agents capable of downregulating an MSF-A dependent HIF-1α and use thereof in cancer treatment” (Medical Research Fund of Tel Aviv Sourasky Medical Center, priority 2004, dated 2012).

Test system: PC-3 xenograft tumors
Assay: Prostate cancer subcutaneous xenograft model
Format: in vivo, CD1/nude mice
Conditions: PC-3-MSF-A vs PC-3-Neo tumors
Procedure: FIG. 28 is a graph depicting the effect of MSF-A over-expression on tumor volume. A prostate cancer xenograft model was established using PC-3-Neo and PC-3-MSF-A cells (3×10^6) which were implanted subcutaneously into the right hind of nude mice. PBS was used as a negative control. Animals were monitored for tumor volume measurements. Tumor volume measurements were calculated using the formula width^2×length×0.52. Mean±SEM (n=5) of representative experiments is shown.
FIG. 29 is a graph depicting the effect of MSF-A over-expression on tumor weight. A prostate cancer xenograft model was established as described in FIG. 28. Mice were sacrificed after 6 weeks and tumors were processed for tumor weight measurements. Tumors were weighed immediately after dissection. Columns, means; bars, SEM; n=5; *, p<0.05.
FIGS. 30a-h are photomicrographs (FIGS. 30a-f) and graphs (FIGS. 30g-h) depicting MSF-A over-expression in tumors and angiogenesis in a prostate cancer xenograft model. […] FIG. 30g—Ki67 staining (%) was quantified by dividing the number of positive nuclei by the number of total nuclei in 40× magnification field multiplied by 100, of 5 paraffin-embedded tumor sections from each animal per group. […] FIG. 30h—Microvessel density (MVD) was determined by counting the capillaries positive for CD34 staining in 4× magnification field per total section area excluding necrotic areas in 5 paraffin-embedded tumor sections from each animal per group. […]
Immunohistochemistry with anti-CD34 and anti-Ki67—For immunohistochemical staining paraffin-embedded tissue was sectioned at 3 μm and mounted on Superfrost/plus slides (Menzel-Glaser, Braunschweig, Germany). […] For quantitative analysis of Ki67 and CD34 staining, positive staining cells and microvessels were counted and their density expressed as the number of positive cells per total number of cells or capillaries per total section area excluding necrotic areas, respectively. […]

B1: MSF-A: myeloid/lymphoid leukemia septin-like fusion protein A (SEQ ID NO:3), over-expressed from the p3xFlag-MSF-A vector (protein, listed as Homo sapiens)
chain: MKKSYSGGTRTSSGRLRRLGDSSGPALKRSFEVEEVETPNSTPPRRVQTPLLRATVASSTQKFQDLGVKNSEPSARHVDSLSQRSPKASLRRVELSGPKAAEPVSRRTELSIDISSKQVENAGAIGPSRFGLKRAEVLGHKTPEPAPRRTEITIVKPQESAHRRMEPPASKVPEVPTAPATDAAPKRVEIQMPKPAEAPTAPSPAQTLENSEPAPVSQLQSRLEPKPQPPVAEATPRSQEATEAAPSCVGDMADTPRDAGLKQAPASRNEKAPVDFGYVGIDSILEQMRRKAMKQGFEFNIMVVGQSGLGKSTLINTLFKSKISRKSVQPTSEERIPKTIEIKSITHDIEEKGVRMKLTVIDTPGFGDHINNENCWQPIMKFINDQYEKYLQEEVNINRKKRIPDTRVHCCLYFIPATGHSLRPLDIEFMKRLSKVVNIVPVIAKADTLTLEERVHFKQRITADLLSNGIDVYPQKEFDEDSEDRLVNEKFREMIPFAVVGSDHEYQVNGKRILGRKTKWGTIEVENTTHCEFAYLRDLLIRTHMQNIKDITSSIHFEAYRVKRLNEGSSAMANGVEEKEPEAPEM
modifications: 3xFlag tag
B1 was tested, and the “intratumoral cell proliferation (Ki67) and vascular density (CD34)” value was “significantly increased”, the mean tumor weight (after 6 weeks) was “significantly heavier” and the “increase of mean tumor volume” value (s.c., nude mice, not statistically significant) was “about 2 fold”.
